How the values were obtained:
[1] = target: HERC5 HECT domain (UniProt Q9UII4); experiment: SAXS
[2] = target: HERC5 HECT domain (UniProt Q9UII4); experiment: SEC

stoichiometry N [1]: 3 | stoichiometry N [2]: 3
Substance: HERC5 HECT domain (from UniProt Q9UII4 702-1024) (domain or fragment)
